Test results from patent US20050261472A1, “Binding moieties for fibrin” (Dyax Corp., priority 1999, published 2005).
Bridge positions count the residues as written; N and C are the ends. Ends that are not written are not given here.

T1: dried fibrin (UniProt P02671 36-629; P02675 45-491; P02679 27-437, limits assumed)
T1 construct: Polymerised fibrin made in 96-well plates from fibrinogen and thrombin, dried at 37 C and rehydrated; also called (rehydrated) dried fibrin; fibrin target
T1 sequence (looked up) 1: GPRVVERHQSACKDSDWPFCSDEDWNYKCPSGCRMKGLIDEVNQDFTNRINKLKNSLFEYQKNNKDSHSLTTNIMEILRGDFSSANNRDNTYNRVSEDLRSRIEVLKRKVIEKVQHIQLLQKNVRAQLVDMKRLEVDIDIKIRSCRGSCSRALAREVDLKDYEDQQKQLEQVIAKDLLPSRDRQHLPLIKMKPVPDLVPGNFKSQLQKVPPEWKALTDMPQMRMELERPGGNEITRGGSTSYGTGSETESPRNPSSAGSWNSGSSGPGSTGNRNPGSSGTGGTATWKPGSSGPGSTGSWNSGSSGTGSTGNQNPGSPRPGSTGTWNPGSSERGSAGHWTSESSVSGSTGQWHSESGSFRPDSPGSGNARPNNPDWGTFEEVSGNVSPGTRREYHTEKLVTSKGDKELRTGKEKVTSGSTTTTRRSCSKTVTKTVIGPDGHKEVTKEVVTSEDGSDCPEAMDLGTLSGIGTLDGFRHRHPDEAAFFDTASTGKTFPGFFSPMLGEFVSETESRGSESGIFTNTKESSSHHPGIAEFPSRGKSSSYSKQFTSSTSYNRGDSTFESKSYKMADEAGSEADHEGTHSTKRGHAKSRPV
T1 sequence (looked up) 2: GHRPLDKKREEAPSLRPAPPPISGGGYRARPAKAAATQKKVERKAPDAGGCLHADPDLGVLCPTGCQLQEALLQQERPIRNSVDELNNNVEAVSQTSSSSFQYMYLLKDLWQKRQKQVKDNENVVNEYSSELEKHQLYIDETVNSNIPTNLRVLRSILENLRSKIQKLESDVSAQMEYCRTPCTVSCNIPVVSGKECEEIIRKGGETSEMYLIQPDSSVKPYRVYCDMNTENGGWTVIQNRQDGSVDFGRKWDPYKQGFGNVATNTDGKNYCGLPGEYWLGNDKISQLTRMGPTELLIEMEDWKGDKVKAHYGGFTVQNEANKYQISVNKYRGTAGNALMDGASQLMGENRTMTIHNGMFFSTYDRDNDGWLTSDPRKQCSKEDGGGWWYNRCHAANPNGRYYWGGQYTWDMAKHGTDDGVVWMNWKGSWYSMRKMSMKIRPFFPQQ
T1 sequence (looked up) 3: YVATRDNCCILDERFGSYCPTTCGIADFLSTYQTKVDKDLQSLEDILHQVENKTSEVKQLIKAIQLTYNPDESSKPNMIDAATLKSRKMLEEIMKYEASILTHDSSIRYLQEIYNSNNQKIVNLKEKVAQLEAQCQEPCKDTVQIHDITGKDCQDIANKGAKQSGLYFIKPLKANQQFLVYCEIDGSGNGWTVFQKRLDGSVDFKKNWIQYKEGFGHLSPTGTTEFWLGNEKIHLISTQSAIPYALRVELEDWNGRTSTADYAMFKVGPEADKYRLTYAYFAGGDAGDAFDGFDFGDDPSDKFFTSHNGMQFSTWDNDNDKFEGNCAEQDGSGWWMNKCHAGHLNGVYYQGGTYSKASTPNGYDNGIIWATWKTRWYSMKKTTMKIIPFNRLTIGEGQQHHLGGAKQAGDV

B1: synthetic polypeptide … (peptide)
peptide: WFHCPYDLCHIL
modifications: disulfide 4-9 (inferred)
B2: synthetic polypeptide … (peptide)
peptide: QWECPYGLCWIQ
modifications: disulfide 4-9 (inferred)
B3: synthetic polypeptide LPCSYYGTCLH (peptide)
peptide: H-LPCSYYGTCLH-NH2
modifications: disulfide 3-9
SMILES: CC(C)C[C@H](NC(=O)[C@@H]1CSSC[C@H](NC(=O)[C@@H]2CCCN2C(=O)[C@@H](N)CC(C)C)C(=O)N[C@@H](CO)C(=O)N[C@@H](Cc2ccc(O)cc2)C(=O)N[C@@H](Cc2ccc(O)cc2)C(=O)NCC(=O)N[C@@H]([C@@H](C)O)C(=O)N1)C(=O)N[C@@H](Cc1c[nH]cn1)C(N)=O
notes: Solid-phase synthesis; disulfide loop between the cysteines
B4: synthetic polypeptide RPCDYYGTCFD (peptide)
peptide: H-RPCDYYGTCFD-NH2
modifications: disulfide 3-9
SMILES: C[C@@H](O)[C@@H]1NC(=O)CNC(=O)[C@H](Cc2ccc(O)cc2)NC(=O)[C@H](Cc2ccc(O)cc2)NC(=O)[C@H](CC(=O)O)NC(=O)[C@@H](NC(=O)[C@@H]2CCCN2C(=O)[C@@H](N)CCCNC(=N)N)CSSC[C@@H](C(=O)N[C@@H](Cc2ccccc2)C(=O)N[C@@H](CC(=O)O)C(N)=O)NC1=O
notes: as for B3
B5: Gd-DTPA-Gly[SEQ ID NO: 22] (peptide)
peptide: GQWECPYGLCWIQ
modifications: disulfide 5-10; not fully specified (N-terminus); also: Gd(III) chelate of DTPA
B6: synthetic polypeptide RPCNYYGTCLH (peptide)
peptide: H-RPCNYYGTCLH-NH2
modifications: disulfide 3-9
SMILES: CC(C)C[C@H](NC(=O)[C@@H]1CSSC[C@H](NC(=O)[C@@H]2CCCN2C(=O)[C@@H](N)CCCNC(=N)N)C(=O)N[C@@H](CC(N)=O)C(=O)N[C@@H](Cc2ccc(O)cc2)C(=O)N[C@@H](Cc2ccc(O)cc2)C(=O)NCC(=O)N[C@@H]([C@@H](C)O)C(=O)N1)C(=O)N[C@@H](Cc1c[nH]cn1)C(N)=O
notes: as for B3
B7: alanine scan peptide LACDYYGTCLD (peptide)
peptide: H-LACDYYGTCLD-NH2
modifications: disulfide 3-9
SMILES: CC(C)C[C@H](NC(=O)[C@@H]1CSSC[C@H](NC(=O)[C@H](C)NC(=O)[C@@H](N)CC(C)C)C(=O)N[C@@H](CC(=O)O)C(=O)N[C@@H](Cc2ccc(O)cc2)C(=O)N[C@@H](Cc2ccc(O)cc2)C(=O)NCC(=O)N[C@@H]([C@@H](C)O)C(=O)N1)C(=O)N[C@@H](CC(=O)O)C(N)=O
B8: alanine scan peptide LPCDYYATCLD (peptide)
peptide: LPCDYYATCLD
modifications: C-terminal amide; N-terminus free
B9: alanine scan peptide LPCDYYGTCAD (peptide)
peptide: H-LPCDYYGTCAD-NH2
modifications: disulfide 3-9
SMILES: CC(C)C[C@H](N)C(=O)N1CCC[C@H]1C(=O)N[C@H]1CSSC[C@@H](C(=O)N[C@@H](C)C(=O)N[C@@H](CC(=O)O)C(N)=O)NC(=O)[C@H]([C@@H](C)O)NC(=O)CNC(=O)[C@H](Cc2ccc(O)cc2)NC(=O)[C@H](Cc2ccc(O)cc2)NC(=O)[C@H](CC(=O)O)NC1=O
B10: alanine scan peptide LPCDAYGTCLD (peptide)
peptide: H-LPCDAYGTCLD-NH2
modifications: disulfide 3-9
SMILES: CC(C)C[C@H](NC(=O)[C@@H]1CSSC[C@H](NC(=O)[C@@H]2CCCN2C(=O)[C@@H](N)CC(C)C)C(=O)N[C@@H](CC(=O)O)C(=O)N[C@@H](C)C(=O)N[C@@H](Cc2ccc(O)cc2)C(=O)NCC(=O)N[C@@H]([C@@H](C)O)C(=O)N1)C(=O)N[C@@H](CC(=O)O)C(N)=O

Assays:
[1] = target: DD(E) soluble fibrin-derived polypeptide (UniProt P02671); experiment: synthetic peptide, Kd against DD(E) target
[2] = target: DD(E) soluble fibrin-derived polypeptide (UniProt P02671); experiment: Kd against DD(E) target
dried fibrin [3] = target: T1, dried fibrin; experiment: dried fibrin plate, free peptide by mass spectrometry, bound vs free fit
Description: (§1) A fibrinogen solution was prepared at 10 mg/ml (or at twice the concentration of fibrin desired) in TBS buffer (50 mM Tris, 150 mM NaCl, pH 7.4). The fibrinogen solution typically contained ˜17 mM citrate. Subsequently, a solution was prepared containing 2 U/ml thrombin, 20 mM CaCl₂, and 5 mM ε-aminocaproic acid in TBS. The fibrinogen solution and thrombin solution were mixed 1:1 in the wells of a 96-well plate, aliquoting 50 μL of each solution in each well (total volume=100 μL). The plates were evaporated to dryness overnight at 37° C. The polypeptide to be tested, dissolved in water, was added to each well at concentrations between 1-200 μM. […] The plate containing the peptide and (rehydrated) dried fibrin was covered and incubated at 37° C. on a shaker table for 2 hours.
(§2) The supernatant in each well was removed by pipette and the concentration of the polypeptide was measured by mass spectrometry. The ion current detected at the mass of the peptide was monitored after injection of a sample into the mass spectrometer. The area-under-the-peak was quantitated and compared to standards of known concentration. The concentration of peptide in the supernatant is equal to the concentration of free peptide. The concentration of bound peptide was determined by subtracting the concentration of free peptide from the total (starting) concentration. A plot of [Bound Peptide] vs. [Free Peptide] was used to determine the Kd and the concentration of bound peptide at saturation. The curve was fit to the equation: [Bound]=N×[Free]/(Kd+[Free]) where [Bound] is the concentration of bound polypeptide, [Free] is the concentration of free polypeptide, Kd is the dissociation constant (equal to the reciprocal of Kₐ) and N is the concentration of binding sites. The number of binding sites per fibrin molecule was equal to the lo concentration of binding sites determined by the [Bound Polypeptide] vs. [Free Polypeptide] plot, divided by the concentration of fibrin (15 μM) used in the assay.

dried fibrin [4] = target: T1, dried fibrin; experiment: dried fibrin plate, bound vs free peptide
dried fibrin [5] = target: T1, dried fibrin; experiment: dried fibrin plate, bound vs free peptide; remark: listed apart in the source
Description: as §1, §2

Kd [2] | Kd (dried fibrin [3]) | Kd (dried fibrin [5]) | other results | Binder
2.63 µM | – | – | Kd [1]: 2.63 µM | B1
2.96 µM | – | – | Kd [1]: 2.96 µM | B2
– | 13 µM | – | – | B3
– | 6.8 µM | – | – | B4
3.1 µM | – | – | Kd (dried fibrin [4]): 3.6 µM | B5
– | 8.5 µM | – | – | B6
– | – | 31 µM | – | B7
– | – | 41 µM | – | B8
– | – | 32 µM | – | B9
– | – | 16 µM | – | B10
